Reference: patent publication US20200071380A1, “COMBINATION THERAPIES COMPRISING SIRP ALPHA-BASED CHIMERIC PROTEINS” (Shattuck Labs, Inc., priority 2018, published 2020)

Columns and labels:
[1] = tested on: CD8+ T cell-depleted PBMC; assay: Proliferation of CD8+ T cell-depleted PBMC ([3H]-thymidine); format: cell-based, human; settings: 0.3, 3, 30, or 300 nM; 7-day culture
Description: (§1) Here, proliferation was assessed via [^3H]-Thymidine incorporation on days 5, 6, and 7. The order of samples (in triplicate) along the X-axis is media only, KLH, Exenatide, 0.3 nm SIRPα-Fc-CD40L, 3 nm SIRPα-Fc-CD40L, 30 nm SIRPα-Fc-CD40L and 300 nm SIRPα-Fc-CD40L. […] Here, proliferation was assessed by ELISpot. The order of samples (in triplicate) along the X-axis is media only, KLH, Exenatide, 0.3 nm SIRPα-Fc-CD40L, 3 nm SIRPα-Fc-CD40L, 30 nm SIRPα-Fc-CD40L and 300 nm SIRPα-Fc-CD40L.
(§2) The observation that SIRPα-Fc-CD40L stimulated CD40 signaling prompted investigation of other cellular functions that depend upon CD40 signaling. CD8+ T cell-depleted PBMC were isolated from a total of 33-50 different human donors and cultured in the presence of a dose-titration of hSIRPα-Fc-CD40L (FIG. 6A and FIG. 6B).

[2] = target: T1, FcγR-IIb (Homo sapiens, UniProt P31994); assay: SPR binding to FcγR-IIb; settings: surface plasmon resonance (SPR)
T1 sequence (P31994 43-310): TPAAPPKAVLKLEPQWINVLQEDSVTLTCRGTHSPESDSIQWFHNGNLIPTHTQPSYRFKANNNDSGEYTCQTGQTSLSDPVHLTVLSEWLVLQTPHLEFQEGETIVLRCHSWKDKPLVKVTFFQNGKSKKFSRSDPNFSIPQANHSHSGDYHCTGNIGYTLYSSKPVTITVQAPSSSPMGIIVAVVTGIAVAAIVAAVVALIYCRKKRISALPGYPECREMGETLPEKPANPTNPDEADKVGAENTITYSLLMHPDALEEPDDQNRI
Text: (§3) The extracellular domain (ECD) of SIRPα and the ECD of CD40L were fused via an antibody Fc domain to generate SIRPαECD-Fc-CD40LECD chimeric proteins. When human proteins were used, the chimeric protein is referred to as hSIRPα-Fc-CD40L; when murine proteins were used, the chimeric protein is referred to as and mSIRPα-Fc-CD40L. Generically, the chimeric protein is referred to as SIRPα-Fc-CD40L. […] Mammalian cells were then transfected with the hSIRPα-Fc-CD40L expressing construct, and the secreted protein was purified from conditioned media by affinity chromatography. The purified protein was then analyzed for the presence of each individual domain by Western blotting using anti-SIRPα, anti-Fc, and anti-CD40L antibodies (FIG. 3A, bottom). […] The reduced and deglycosylated form of the protein migrated at the predicted monomeric molecular weight of 90.1 kDa. […] Next, binding affinities for SIRPα-Fc-CD40L to recombinant CD47, CD40, or Fc receptors were evaluated by surface plasmon resonance (SPR). […] Finally, to confirm that SIRPα-Fc-CD40L interacted with native CD47 and CD40 in a similar manner to recombinant CD47 and CD40, CHOK1-hCD47 and CHOK1-hCD40 reporter cell lines were developed (FIG. 3F). […] A functional ELISA evaluated whether SIRPα-Fc-CD40L could outcompete a commercially available single-sided SIRPα-Fc control for binding to recombinant CD47 (FIG. 3H).

[3] = Repeat-dose safety and activity study in cynomolgus macaques; format: in vivo; settings: intravenous infusion every week for five weeks, 0.1, 1, 10 and 40 mg/kg
Description: FIG. 21A-D is a graph showing cynomolgus macaques that were treated with vehicle, or 0.1, 1, 10, and 40 mg/kg of SIRPα-Fc-CD40L. Blood chemistry analysis assessed peripheral erythrocyte counts (FIG. 21A), hemoglobin levels (FIG. 21C), and hematocrit (FIG. 21B). In addition, the fold-change in lymphocyte count from pre-dose to 24 hours post-dose is shown (FIG. 21D).
The experiments of this example tested the safety and activity of the human SIRPα-Fc-CD40L chimeric protein following repeat doses in cynomolgus macaques. Briefly, naïve cynomolgus macaques were administered the human SIRPα-Fc-CD40L chimeric protein by intravenous infusion every week, for five consecutive weeks, at doses of 0.1, 1, 10 and 40 mg/kg. Standard hematology and clinical chemistry parameters were collected before and after each dose.
Receptor occupancy was evaluated on circulating CD40+ lymphocytes.

[4] = tested on: CD8+ T cell-depleted PBMC; assay: IL-2 ELISpot of CD8+ T cell-depleted PBMC; format: cell-based, human; settings: day 8 of the culture
Description: as §1, §2

[5] = target: FcγR-IIIb (Homo sapiens, UniProt O75015); assay: SPR binding to FcγR-IIIb; settings: surface plasmon resonance (SPR)
Text: as §3

[6] = target: FcγR-Ia (Homo sapiens, UniProt P12314); assay: SPR binding to FcγR-Ia; settings: surface plasmon resonance (SPR)
Text: Scale is shown and yellow arrows correspond with each identified monomer. A schematic of the hexamer species is shown to the right, depicting dimerization of the Fc domain and trimerization of the CD40L domain. […] Recombinant hSIRPα-Fc, hCD40L-Fc, and hIgG1 were used as positive controls. […] In both panels, the CHOK1 Parental is on the left and the CHOK1/hCD47 is on the right. […] For both graphs, the CHOK1 Parental is on the bottom. […] In this figure, the control is the top curve, the SIRPα-Fc-CD40L is the middle curve, and the anti-CD47 is the bottom curve.
The extracellular domain (ECD) of SIRPα and the ECD of CD40L were fused via an antibody Fc domain to generate SIRPαECD-Fc-CD40LECD chimeric proteins. When human proteins were used, the chimeric protein is referred to as hSIRPα-Fc-CD40L; when murine proteins were used, the chimeric protein is referred to as and mSIRPα-Fc-CD40L. […] The purified protein was then analyzed for the presence of each individual domain by Western blotting using anti-SIRPα, anti-Fc, and anti-CD40L antibodies (FIG. 3A, bottom). […] Next, binding affinities for SIRPα-Fc-CD40L to recombinant CD47, CD40, or Fc receptors were evaluated by surface plasmon resonance (SPR). […] A functional ELISA evaluated whether SIRPα-Fc-CD40L could outcompete a commercially available single-sided SIRPα-Fc control for binding to recombinant CD47 (FIG. 3H).

FcγR-Ia, sequence (P12314 16-374): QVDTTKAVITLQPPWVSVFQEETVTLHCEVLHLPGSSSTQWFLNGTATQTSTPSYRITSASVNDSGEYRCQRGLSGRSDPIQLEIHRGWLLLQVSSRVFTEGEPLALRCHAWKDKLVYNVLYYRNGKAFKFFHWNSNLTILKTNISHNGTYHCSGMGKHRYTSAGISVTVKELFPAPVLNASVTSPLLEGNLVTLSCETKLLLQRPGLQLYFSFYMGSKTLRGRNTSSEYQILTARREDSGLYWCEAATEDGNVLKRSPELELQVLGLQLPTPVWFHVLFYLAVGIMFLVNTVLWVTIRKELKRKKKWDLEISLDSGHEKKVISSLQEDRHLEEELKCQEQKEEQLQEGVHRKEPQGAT
FcγR-IIIb, sequence (O75015 17-200): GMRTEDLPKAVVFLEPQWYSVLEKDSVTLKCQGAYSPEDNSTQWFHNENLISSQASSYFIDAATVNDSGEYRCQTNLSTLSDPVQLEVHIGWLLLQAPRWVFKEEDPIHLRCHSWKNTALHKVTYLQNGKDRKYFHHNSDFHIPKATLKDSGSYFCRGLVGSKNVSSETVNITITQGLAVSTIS

With “hSIRPα-Fc-CD40L: Chimeric protein: human SIRPα extracellular domain fused via an antibody Fc domain to human CD40L extracellular domain (SEQ ID NO: 60)” the “proliferation of human PBMC” value [1] was “dose-dependent proliferation of human PBMC”, the “binding to FcγR-IIb” value [2] was “undetectable binding” and the hemolysis or thrombocytopenia [3] was “no evidence of hemolysis or thrombocytopenia”. For the same substance, the “number of IL-2-secreting PBMC” value [4] was “dose-dependent increase in the number of IL-2-secreting PBMC”, the “binding to FcγR-IIIb” value [5] was “undetectable binding” and the “binding to FcγR-Ia” value [6] was “undetectable binding”.
